Assay: yeast display, Sf9 membrane polyspecificity reagent, FACS + sequencing; frameworks hold sequencing errors
Outline: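 After 36–48 hours of galactose induction, yeast (Saccharomyces cerevisiae BJ5465) displaying a synthetic nanobody library were stained at 4 °C for 1 hour with 10% biotinylated, detergent-solubilized Sf9 membrane reagent. Streptavidin microbeads enriched the stained cells before FACS sorting into low and high (top ~1%) gates on anti-HA and streptavidin fluorescence. Each clone's polyreactivity label reflects its gate of origin.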

Sequence	polyreactivity (PSR sort gate)
QVQLVESGGGLVQAGGSLRLSCAASGFTFYQYAMGWYRQAPGKERELVAAISSGGSTYYADSVKGRFTISRDNAKNTVYLQMNSLKPEDTAVYYCAARFYRPGVKQYGYWGQGTQVTVSS	high polyreactivity
QVQLVESGGGLVQAGGSLRLSCAASGFTFYQYAMGWYRQAPGKERELVAAITWNGGSTYYADSVKGRFTISRDNAKNTVYLQMNSLKPEDTAVYYCAAESPSKFDYDYWGQGTQVTVSS	high polyreactivity
QVQLVESGGGLVQAGGSLRLSCAASGFTFYRNAMGWYRQAPGKERELVAAISSRGGSTYYADSVKGRFTISRDNAKNTVYLQLNSMKPEDNAVYYCAAYGNYNEYDYGGQGTQVTVSS	high polyreactivity
QVQLVESGGGLVQAGGSLRLSCAASGFTFYRNAMGWYRQAPGKERELVAAISSRGGSTYYADSVKGRFTISRDNAKNTVYLQMNSLKPEDTAVYYCAAYGNYNEYDYWGQGTQVTVSS	high polyreactivity
QVQLVESGGGLVQAGGSLRLSCAASGFTFYRNAMGWYRQAPGKERELVARISRRGGITSYADSVKGRFTISRDNAKNTVYLQMNSLKTEDTAVYYCKAEKRGQSYRFDYWGQGTQVTVSS	high polyreactivity
QVQLVESGGGLVQAGGSLRLSCAASGFTFYRNTMGWYRQAPGKERELVAAISTRDGSTYYADSVKGRFTISRDNAKYTVYLPMNSLKPEDTAVYYCAVLTYRGRFEYWGQGTQVTVSS	high polyreactivity
QVQLVESGGGLVQAGGSLRLSCAASGFTFYRNTMGWYRQAPGKERELVAAITQRGGSTYYADSVKGRFTISRDNAKNTVYLQMNSLKPEDTAVYYCNRDVKVLYASSHSPYGYDHWGQGTQVTVSS	low polyreactivity
QVQLVESGGGLVQAGGSLRLSCAASGFTFYRYAIGWYRQAPGKETQFFASISRSGGSTYYADSVKGRFTISRDNAKNTVYLQMNSLKPEDTEVYYCAKSYTSSPFRIRDYWGQGTQVTVSS	high polyreactivity
QVQLVESGGGLVQAGGSLRLSCAASGFTFYRYAMGSYRQAPGKERELVAAITFRGDSTYYADSVKGRFTISRDNAKNTVYLQMNSLKPEDTAVYYCAADRPSGWYSYLSLYIVRRGYWGQGTQVTVSS	low polyreactivity
QVQLVESGGGLVQAGGSLRLSCAASGFTFYRYAMGWYRPAPGKERELVAAITSGGSTYYADSVKGRCTISRDNAKNTVFLQMISLKPEDTAVYSCAAQKARVSPGAWTRYVYWGQGTQVTVSS	high polyreactivity
QVQLVESGGGLVQAGGSLRLSCAASGFTFYRYAMGWYRPATGKERELVATISASGGSTYYADSVKGRFTISRDNAKNTVYLQMNSLKPEDTAVYYCAVRYKSWYGFNYWGQGTQVTVSS	high polyreactivity
QVQLVESGGGLVQAGGSLRLSCAASGFTFYRYAMGWYRQAPGKERELVAAISGSGCSKYYADSVKGRFTISRDNAKNTVYLHRNSLKPEDTAVYYCNTVWFYGAKYDYWGQGTQVTVSS	high polyreactivity
QVQLVESGGGLVQAGGSLRLSCAASGFTFYRYAMGWYRQAPGKERELVAAISQRGGRTYYADSVKGRFTISRDNAKTTVYLQMNSLKPEDTAVYYCNARYSGYGLYDYWGQGTQVTVSS	high polyreactivity
QVQLVESGGGLVQAGGSLRLSCAASGFTFYRYAMGWYRQAPGKERELVAAISTSGVSTYYADSVKGRFTISRDNAKNTVYLQMNSLKPEDTAVYYCAKAGWRGSYIYYRFRVGYDSWGQGTQVTVSS	high polyreactivity
QVQLVESGGGLVQAGGSLRLSCAASGFTFYRYTMGWNRQAPGKERELVASITRRGGSTYYADSVKGRFTISRDNAKNTVYFQMNSLKPEDTAVYYCNAATPVWQSGTYEYWGQGTQVTVSS	high polyreactivity
QVQLVESGGGLVQAGGSLRLSCAASGFTFYRYTMGWYRQPPGKERELVAAISARGVSTYYADSVKGRFTISRDNAKNTVYLQMNSLKPEDTAVYYCYVSRYDSWGQGTQVTVSS	high polyreactivity
QVQLVESGGGLVQAGGSLRLSCAASGFTFYSNAMGWYRQAPGKERELVAAITWRGGSTNYADSVKGRFTISRDNAKNTVYLHMNSLKPEETAVYYCAAVTYWFWPGMDYWGQGTEVTVSS	low polyreactivity
QVQLVESGGGLVQAGGSLRLSCAASGFTFYSNAMGWYRQAPGKERELVAVINSDDDSTYYADSVKGRFTISRDNAKNTVYLQMNSLKPEDTAVYYCNKVWRVGKYPYSDRYYFGGGYWGQGTQVTVSS	high polyreactivity
QVQLVESGGGLVQAGGSLRLSCAASGFTFYSYAMGWYRPAPGKERELVAAISSGGSTKYADSVKGRFTISRDNAKNTVYLQMNSVKPEDTEVYYCAARYYRDYRWYTYAYDYWGQGTQVTVSS	high polyreactivity
QVQLVESGGGLVQAGGSLRLSCAASGFTFYSYAMGWYRQAPGKERELVAAISGGGGSTYYADSVKGRFTISRDNAKNTVYLQMNSLKPEDTAVYYCAKRPAYRGYGLGYYWGQGTQVTVSS	high polyreactivity
QVQLVESGGGLVQAGGSLRLSCAASGFTFYSYAMGWYRQAPGKERELVAAISRSGGSTRYADSVKGRFTISRDNAKNTVYLQMNSLKPEDTAVYYCAARSWYPYRYSSLYYWGQGTQVTVSS	high polyreactivity

Sequence	polyreactivity (PSR sort gate)
QVQLVESGGGLVQAGGSLRLSCAASGFTFYSYAMGWYRQAPGKERELVAAISWSGTRTYYADSVKGRFTISRDNAKYTVYLQMNSLKPEDTAVYYCAARGYRYGYGYWGQGTQVTVSS	high polyreactivity
QVQLVESGGGLVQAGGSLRLSCAASGFTFYSYAMGWYRQAPGKEWELVAAISRRGGSTYYADSVKGRFTISRDNAKNTVYLQMNCLKPEDTAVYYCAAEDSNSRYLYGYDYWGQGTQVTVSS	high polyreactivity
QVQLVESGGGLVQAGGSLRLSCAASGFTFYSYPLGWYRQAPGKERELVAAITRGGRTYYADSVKGRFTISRDNAKTTVYLQMNSLKPDDSAVSYCNATAGHGYYYWGQGTQVTVSS	high polyreactivity
QVQLVESGGGLVQAGGSLRLSCAASGFTFYTNAMGWYRQAPGKERELVAGINSGSSTYYADSVKGRFTISRDNAKNNVYLQMNSLKPEDTAVYYCAARRSRYIHRGFGYWGQGTQVTVSS	high polyreactivity
QVQLVESGGGLVQAGGSLRLSCAASGFTFYTNTMGWYRQAPGKERELVAAISSGGSTYYADSVKGRFTISRDNAKNTVYLQMNRLKPEDTAVYYCNAYDYHDVADDYWGQGTQVTVSS	low polyreactivity
QVQLVESGGGLVQAGGSLRLSCAASGFTFYTNVMAWYRQAPGKERELVAAINSGGSTNYADSVKGRFTISRDNAKNTVFLQMNSLKPEDTAVYYCNKRGTEIGYDYWGQGTQVTVLS	low polyreactivity
QVQLVESGGGLVQAGGSLRLSCAASGFTFYTNVMGWYIQAPGKERELVAAINSGGSTNYADSVKGRFTISRDNAKNTVYLQMNSLKPEDTAVYYCNKRGTEIGYDYWGQGTQVTVLS	low polyreactivity
QVQLVESGGGLVQAGGSLRLSCAASGFTFYTYAMGLYRQAPGKERELVAAITSSGGSTYYADSVKGRFTISRDNAKNTVYLQMKSLKPEDTAVYYCNAVSYYLGDDYWGQGTQVTVSS	high polyreactivity
QVQLVESGGGLVQAGGSLRLSCAASGFTFYTYAMGWYRQAPGKERELVAAISGSGSRTYYADSVKGRFTISRDNAKNTVYLQMNSLKPEDTAVYYCNAGYGSGSLHREFNYWGQGTQVTVSS	low polyreactivity
QVQLVESGGGLVQAGGSLRLSCAASGFTFYTYAMGWYRQAPGKERELVAAITGSGGRTYYADSVKGRFTISRDNAKTTVYLQMNSLKPEDTAVYYCAALYVYRPRTPYGYWGQGTQVTVSS	high polyreactivity
QVQLVESGGGLVQAGGSLRLSCAASGFTFYTYAMGWYRQAPGKERELVATITGRTGSTYYADSVKGRFTISRDNAKNTVYLQMNSLKPEDTAVYYCAADWGKLHVTWFRVNYWGQGTQVTVSS	low polyreactivity
QVQLVESGGGLVQAGGSLRLSCAASGFTFYTYDMGWYRQAPGKERALVAAITSGVSTNYADSVKGRFTISRDNAKNTVYLQMNSLKPEDTAVYYCNKDVRPAYRWYDYWGQDTQVTVSS	low polyreactivity
QVQLVESGGGLVQAGGSLRLSCAASGFTFYTYFMGWYRPAPGKERELVAAITSGVSTNYADSVKGRFTISRDNAKNTVYLQMNSLKPEDTAVYYCNKDVRPAYRWYDYWGQDTQVTVSS	low polyreactivity
QVQLVESGGGLVQAGGSLRLSCAASGFTFYTYTMGWYRQAPGKERELVAVISRSGGSTYYADSVKGRFTISRDNAKNTVYLQMNSLKPEDTAVYYCNAGYWRFIDSYDYWGQGTQVTVSS	high polyreactivity
QVQLVESGGGLVQAGGSLRLSCAASGFTFYWTAMGWYRQAPGKERELVAAINGGDSTNYADSVKGRFTISRDNAKNTVYLQMNSLKPEDTAVYYCAKYYYTSIVGYDSWGQGTQVTVSS	low polyreactivity
QVQLVESGGGLVQAGGSLRLSCAASGFTFYWYDMGWYRQAPGKERELVSTISTGGGTNYADSVKGRFTISRDNAKNTVYLQMNSLKPEDNAVYYCAADGSAGYQWGYDFEGDYWGQGTEVTVSS	high polyreactivity
QVQLVESGGGLVQAGGSLRLSCAASGFTFYWYTMAWNRQAPGKERELVAAISRRGGSTSYADSVKGRFTISRDNAKNTVYLQMNSLKPDDTAVYYCAKTPGWTDYDYWGQGTQVTVSS	high polyreactivity
QVQLVESGGGLVQAGGSLRLSCAASGFTFYWYTMGWYRPAPGKERELVATISGSGGRTYYADSVKGRFTISRDNAKNTVYLQMNSLKPEDSAVYYCNAGRPYKYGYWGQGTQVTVSS	high polyreactivity
QVQLVESGGGLVQAGGSLRLSCAASGFTFYYNAMGCYRQAPGKERELVAIRFRGGNTYYADSVKGRFTISRDNAKNTVYLQMNSLKPEDTAVYYCNADDRGSTYVDFDYWGQGTQVTVSS	low polyreactivity
QVQLVESGGGLVQAGGSLRLSCAASGFTFYYNAMGWYRQAPGKERELVASITRSGGRTYYADSVKGRFTISRDNAKNTVYLQMNSLKPEDTAVYYCARRYPGGYYWGQGTQVTVSS	high polyreactivity

— the nanobody polyreactivity screen of Harvey et al. (2022)
